Consider 10 molecules from patent US6033894A, “Kaposi's Syndrome Herpesvirus protease and assembly protein compositions and methods” (The Regents of the University of California, priority 1998, dated 2000).

The target of series [1] is T1, KSHV protease Pr(S204G), an autolytically stable variant (Human herpesvirus 8 strain GK18, UniProt Q2HRB6, S204G).
T1 construct: S204G, untagged, recombinant in E. coli; source DNA from pulmonary KS tumor clone
T1 sequence (Q2HRB6 1-230 A226V): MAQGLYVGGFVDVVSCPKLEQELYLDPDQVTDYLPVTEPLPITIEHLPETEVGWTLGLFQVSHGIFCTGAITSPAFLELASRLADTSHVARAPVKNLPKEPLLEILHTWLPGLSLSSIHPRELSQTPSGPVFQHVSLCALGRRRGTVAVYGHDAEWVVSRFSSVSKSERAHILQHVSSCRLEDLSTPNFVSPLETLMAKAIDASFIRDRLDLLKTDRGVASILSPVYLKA
In words: Fluorometric enzyme assay, inhibition of KSHV protease. Format: biochemical, Kaposi's Sarcoma Herpesvirus (KSHV). The conditions noted are these: 0.5 μM enzyme Pr(S204G), 300 μM inhibitor, 15 min pre-incubation, 20 μM fluorogenic substrate.

Series [2] relates to KSHV-infected B-cell line, BCBL-1. In words: Northern blot of KSHV AP and Pr/AP transcripts in BCBL-1 cells. It is filed as cell-based. Details: production of 0.95 kb AP transcript / production of 0.95 kb and 2.3 kb transcripts: dose or concentration left out as unconfirmed. The source says: The KSHV-infected B-cell line, BCBL-1, was employed for transcription of the KSHV Pr/AP and AP genes during lytic infection. This cell line harbors the viral genome in latent form, and treatment of these cells with TPA induces lytic replication (Renne, et al., 1996). Equivalent amounts of poly(A)-enriched RNA from uninduced or induced BCBL-1 cells in the presence or absence of phosphoroformic acid (PFA), an inhibitor of herpesviral DNA replication, were separated on a formaldehyde/agarose gel, transferred to a membrane, and hybridized to a probe derived from the 1.5 kb fragment containing the Pr/AP ORF of KSHV, as detailed in Example 6.
BCBL-1 cells (Renne, et al., 1996) were treated with phosphoroformic acid (PFA) at a concentration of 500 mM for at least 3 days prior to induction. Untreated and PFA treated cells were then split into identical flasks, at 3×10^5 cells/ml, and left unstimulated or induced with 12-O-tetradecanoyl phorbol-13-acetate (TPA) at a concentration of 20 ng/ml. After 48 hours, total RNA was harvested using RNAzol B as recommended by the manufacturer (Tel-Test, Friendwood, Tex.). To enrich the polyadenylated RNA fraction, 300 μg RNA samples, uninduced and induced with TPA, and with and without PFA treatment, were affinity purified using the Oligotex mRNA purification system (Qiagen, Chatsworth, Calif.). RNA was separated on a 1% agarose, 17% formaldehyde gel, transferred to Hybond-N nylon membrane in 10× SSC for 5 hours, and UV-crosslinked. The 1.5 kb insert from pBS1.5 was gel purified and labelled using the rediPrime Random Prime kit (Amersham Corporation, Arlington Heights, Ill.). Hybridization was performed as according to standard methods (Renne, et al., 1996), and the blot was exposed to Kodak XAR5 film for 8 hours.

Series [3] concerns the target fluorogenic peptide substrate DABCYL-Arg-Gly-Val-Val-Asn-Ala-Ser-Ser-Arg-Leu-Ala-EDANS (HCMV).
Series [4] relates to HCMV M-site peptide substrate DABCYL-[…]-EDANS. In words: Continuous fluorometric assay of cleavage of fluorogenic peptide substrate. It is filed as biochemical. The conditions noted are these: for increase in fluorescence intensity (F/Fo) from peptide hydrolysis: 1.5 μM enzyme, 10 μM substrate, pH 5.5, 37° C., by five hours; for proteolytic activity relative to KSHV Pr: assayed according to the method of Example 5; for rate of hydrolysis of HCMV substrate relative to 1.5 μM wild-type KSHV Pr: 1 μM trypsin D102N or 1 nM trypsin vs 1.5 μM KSHV Pr, one-hour time course. The method, then:
Such activities can be determined by comparing the activity of a KSHV PR, as defined herein, to that of the KSHV Pr having the sequence SEQ ID NO:7. For example, in experiments carried out in support of the present invention, recombinantly produced His6 -KSHV Pr and variant His6 -KSHV Pr(S114A) proteins were tested for ability to cleave a synthetic peptide substrate. The substrate, containing the HCMV M-site peptide sequence RGVVNASSRLA (SEQ ID NO:15) flanked by a fluorogenic donor-acceptor pair, allows for continuous monitoring of peptide hydrolysis due to fluorescence enhancement arising from donor-acceptor separation (Holskin, et al., 1995). This substrate contains an internal Arg residue, allowing for cleavage by trypsin, an extremely well-characterized serine protease.
Protease assays using the fluorogenic peptide substrate DABCYL-Arg-Gly-Val-Val-Asn-Ala-Ser-Ser-Arg-Leu-Ala-EDANS, where RGVVNASSRLA (SEQ ID NO:15) was obtained from BACHEM (King of Prussia, Pa.), were monitored optically by a Perkin-Elmer LS-5B luminescence spectrophotometer interfaced with a Macintosh SE-30 computer. DABCYL represents 4-(4'-Dimethylaminophenylazo)benzoic acid, and EDANS signifies (2'-aminoethylamino)-naphthalene-1-sulfonic acid. His6 -Pr and His6 -Pr(S114A) were diluted 10-fold from storage buffer into assay buffer (50 mM NaOAc (pH 5.5), 20% (v/v) glycerol, 0.1 mM EDTA, 0.1 mM DTT), equilibrated to 37° C. for 5 minutes in thermostatted quartz cuvettes, and manually mixed with a final substrate concentration of 10 μM. A pH 5.5 buffer was utilized due to slightly higher proteolytic activity than that observed in pH 7.5 Tris-based solutions. The final KSHV Pr concentrations were 1.5 μM. Time-evolved fluorescence enhancement was followed by exciting the samples at 355 nm and detecting emission at 495 nm. Trypsin and its D102N variant (Craik, et al., 1987) were diluted into the same assay buffer to final concentrations of 1 nM and 1 μM, respectively, and treated identically to the KSHV enzymes. The ratio of fluorescence at each time point (F) was then compared with the initial fluorescence output (FO) to generate plots of F/FO vs. time.

For series [5], the target named is fluorogenic peptide substrate DABCYL-Arg-Gly-Val-Val-Asn-Ala-Ser-Ser-Arg-Leu-Ala-EDANS (HCMV). The source holds these as a separate data set.

Positions count from the first letter of the chain named. In names and notes the source's numbering stands. Entries after “also recorded” stand apart in the source; their conditions may differ. Peptide text beside a SMILES is read from it. * marks the point of attachment. Boc = CC(C)(C)OC(=O)*; CH2Cl = ClC*

As for `CC(C)C[C@H](NC(=O)[C@H](Cc1ccc(O)cc1)NC(=O)OC(C)(C)C)C(=O)N[C@@H](CCCCN)C(=O)N[C@@H](C)C(=O)CCl` [Boc-YLKA-COCH2 Cl] (Boc-YLKA-CH2Cl), the “inhibition of protease activity” value in series [1] was “Complete inhibition”.
For `O=C(O)P(=O)(O)O` [PFA, phosphoroformic acid], in series [2] (TPA-induced BCBL-1 cells), the “production of 0.95 kb and 2.3 kb transcripts” value is “strongly inhibited”. Further, the “production of 0.95 kb AP transcript” value in series [2] (uninduced BCBL-1 cells) is given as “strongly inhibited”.
For the molecule `CCCCCCCCCCCCCC(=O)O[C@@H]1[C@@H](C)[C@@]2(O)[C@@H](C=C(CO)C[C@]3(O)C(=O)C(C)=C[C@@H]23)[C@@H]2C(C)(C)[C@]12OC(C)=O` [TPA, 12-O-tetradecanoyl phorbol-13-acetate], the “production of 0.95 kb AP transcript upon lytic induction” value in series [2] (BCBL-1 cells, TPA 20 ng/ml, 48 hours) is reported as “strongly upregulated”.
For the molecule KSHV His6-Pr (enzyme), the fluorescence enhancement (F/Fo) from hydrolysis of the fluorogenic peptide (fold increase in fluorescence intensity) in series [3] was determined as 3.
“KSHV Pr: recombinant KSHV protease (SEQ ID NO:7) with amino-terminal His6 tag, expressed in E. coli”: the “increase in fluorescence intensity (F/Fo) from peptide hydrolysis” value in series [4] is listed as “nearly three-fold increase”.
As to “trypsin D102N (from UniProt P00763) (enzyme)”, the fluorescence enhancement (F/Fo) from hydrolysis of the fluorogenic peptide (fold faster than KSHV Pr) in series [5] was found to be 2.

B1: Pr(S204G): KSHV protease variant engineered to stabilize the enzyme against autoproteolysis, expressed without His6 tag (protein)
chain: T1 sequence (Q2HRB6 1-230 A226V) with S204G
For B1, in series [4], the “proteolytic activity relative to KSHV Pr” value is reported as “essentially the same activity as Pr; also recorded: substantially the same activity as Pr”.

B2: S114A variant: KSHV protease variant in which the active-site Ser-114 was converted to Ala (protein)
chain (part 1 of 2): MRGS
chain (part 2 of 2): GSAQGLYVGGFVDVVSCPKLEQELYLDPDQVTDYLPVTEPLPITIEHLPETEVGWTLGLFQVSHGIFCTGAITSPAFLELASRLADTSHVARAPVKNLPKEPLLEILHTWLPGLALSSIHPRELSQTPSGPVFQHVSLCALGRRRGTVAVYGHDAEWVVSRFSSVSKSERAHILQHVSSCRLEDLSTPNFVSPLETLMAKAIDASFIRDRLDLLKTDRGVASILSPVYLKA
As for B2, in series [4], the “increase in fluorescence intensity (F/Fo) from peptide hydrolysis” value is “minimal enhancement” and the “proteolytic activity relative to KSHV Pr” value was 1/10.

B3: trypsin D102N: trypsin in which the active site Asp residue has been replaced with Asn (protein)
chain: IVGGYTCQENSVPYQVSLNSGYHFCGGSLINDQWVVSAAHCYKSRIQVRLGEHNINVLEGNEQFVNAAKIIKHPNFDRKTLNNDIMLIKLSSPVKLNARVATVALPSSCAPAGTQCLISGWGNTLSSGVNEPDLLQCLDAPLLPQADCEASYPGKITDNMVCVGFLEGGKDSCQGDSGGPVVCNGELQGIVSWGYGCALPDNPGVYTKVCNYVDWIQDTIAAN
For the molecule B3, the “rate of hydrolysis of HCMV substrate relative to 1.5 μM wild-type KSHV Pr” value in series [4] is listed as 2 fold. For the same molecule, in series [4] (under the conditions used herein), the “catalytic efficiency relative to trypsin” value was “roughly 5000 fold”.

B4: trypsin: extremely well-characterized serine protease used for comparison (protein)
chain: B3 chain
For the molecule B4, in series [4], the “rate of hydrolysis of HCMV substrate relative to 1.5 μM wild-type KSHV Pr” value is given as “substantially more active than the KSHV enzyme”.
